Data from patent publication US6753317.
Non-standard residues stand in square brackets, D forms with d. *: point of attachment. Dmt = Cc1cc(O)cc(C)c1C[C@H](N)C(=O)O; Tic = O=C(O)[C@@H]1Cc2ccccc2CN1; NHNH2 = NN*

Legend:
[1] = target: µ-opioid receptor (rat brain synaptosomal preparation) (rat) (UniProt P33535); test: radioligand competition vs [^3H]DAGO, rat brain synaptosomes
[2] = target: δ-opioid receptor (rat brain synaptosomal preparation) (rat) (UniProt P33533); test: radioligand competition vs [^3H]DPDPE, rat brain synaptosomes
[3] = target: δ-opioid receptor (rat brain synaptosomal preparation) (rat) (UniProt P33533); test: radioligand competition vs [^3H]N,N(CH3)2-Dmt-Tic-OH, rat brain synaptosomes
[4] = target: δ-opioid receptor of the mouse vas deferens (MVD) (mouse) (UniProt P32300); test: cell-based or functional assay
Sequence of δ-opioid receptor of the mouse vas deferens (MVD) (mouse) (P32300 whole entry, stated change not applied): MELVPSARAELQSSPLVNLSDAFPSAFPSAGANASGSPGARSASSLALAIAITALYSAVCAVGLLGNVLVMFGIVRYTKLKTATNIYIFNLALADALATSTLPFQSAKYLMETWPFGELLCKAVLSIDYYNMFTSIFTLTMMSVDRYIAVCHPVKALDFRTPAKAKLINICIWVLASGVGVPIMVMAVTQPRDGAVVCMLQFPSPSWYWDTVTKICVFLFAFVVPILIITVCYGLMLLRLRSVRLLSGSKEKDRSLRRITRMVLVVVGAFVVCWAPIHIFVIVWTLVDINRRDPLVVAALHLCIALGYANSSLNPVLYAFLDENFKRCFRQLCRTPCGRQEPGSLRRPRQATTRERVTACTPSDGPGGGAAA

Sequence of µ-opioid receptor (rat brain synaptosomal preparation) (rat) (P33535 whole entry): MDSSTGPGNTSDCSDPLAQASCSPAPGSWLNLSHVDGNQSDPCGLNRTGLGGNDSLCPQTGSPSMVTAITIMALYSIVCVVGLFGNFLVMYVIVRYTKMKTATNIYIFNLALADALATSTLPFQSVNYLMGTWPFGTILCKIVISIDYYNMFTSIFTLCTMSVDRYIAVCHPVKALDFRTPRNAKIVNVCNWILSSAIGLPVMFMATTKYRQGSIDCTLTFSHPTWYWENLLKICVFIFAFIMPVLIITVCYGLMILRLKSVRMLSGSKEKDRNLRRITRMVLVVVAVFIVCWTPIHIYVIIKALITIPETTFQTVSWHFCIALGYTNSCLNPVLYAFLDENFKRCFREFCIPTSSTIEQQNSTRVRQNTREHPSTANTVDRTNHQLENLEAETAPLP
Sequence of δ-opioid receptor (rat brain synaptosomal preparation) (rat) (P33533 whole entry, stated change not applied): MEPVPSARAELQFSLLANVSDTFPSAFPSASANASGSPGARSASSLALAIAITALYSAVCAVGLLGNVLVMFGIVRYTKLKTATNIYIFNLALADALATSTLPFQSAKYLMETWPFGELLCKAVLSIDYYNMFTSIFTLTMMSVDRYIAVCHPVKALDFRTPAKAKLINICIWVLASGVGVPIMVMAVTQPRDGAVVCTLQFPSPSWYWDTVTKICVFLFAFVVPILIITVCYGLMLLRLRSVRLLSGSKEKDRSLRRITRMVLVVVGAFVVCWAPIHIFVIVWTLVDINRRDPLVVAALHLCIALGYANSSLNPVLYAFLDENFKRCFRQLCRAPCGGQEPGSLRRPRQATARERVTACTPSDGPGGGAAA

Ki [1] | Ki [2] | Ki [3] | fold rise of µ affinity relative to N,N(Me)2-Dmt-Tic-OH [1] | MVD pA2 [4] | Substance
47 nM | 0.24 nM | 0.69 nM |  |  | H-Dmt-Tic-Ala-NH2 (peptide)
2.52 nM | 0.073 nM | 0.04 nM |  |  | H-Dmt-Tic-Ala-NH-1-adamantane (peptide)
4.03 nM | 0.066 nM | 0.08 nM |  |  | H-Dmt-Tic-Ala-NH-tBu (peptide)
5.75 nM | 0.058 nM | 0.12 nM |  |  | H-Dmt-Tic-Ala-NHMe (peptide)
11.3 nM | 0.23 nM | 0.14 nM |  |  | H-Dmt-Tic-Ala-OMe (peptide)
0.76 nM | 0.26 nM | 1.01 nM |  |  | H-Dmt-Tic-NH-1-adamantane (peptide)
37 nM | 0.7 nM | 9.75 nM |  |  | H-Dmt-Tic-NH-tetrazole-5-yl (peptide)
 | 1.22 nM | 2.13 nM |  |  | H-[Dmt]-[Tic]-NH2
85.5 nM | 0.47 nM | 1.24 nM |  |  | H-[Dmt]-[Tic]-NHMe
3320 nM |  |  |  |  | H-[Dmt]-[Tic]-OH
 | 0.92 nM |  |  |  | N,N(Et)2-DMT-Tic-OH (peptide)
226 nM | 0.61 nM | 0.11 nM |  |  | N,N(Me)2-Dmt-Tic-NH-tBu (peptide)

Continued, substance first:

Substance | Ki [1] | Ki [2] | Ki [3] | fold rise of µ affinity relative to N,N(Me)2-Dmt-Tic-OH [1] | MVD pA2 [4]
H-(R,S)Dmt-Tic-OH (peptide) | 1160 nM | 0.46 nM | 0.8 nM |  | 
H-Dmt-D-Tic-NH-1-adamantane (peptide) | 0.26 nM | 24.5 nM | 70.3 nM |  | 
H-Dmt-Tic-Ala-OH (peptide) | 813 nM | 0.29 nM | 0.29 nM |  | 
H-Dmt-Tic-NH-tBu (peptide) | 5.96 nM | 0.43 nM | 0.93 nM |  | 
H-Dmt-βTic-OH (peptide) | 418 nM | 0.85 nM | 0.71 nM |  | 
H-[Dmt]-[Tic]-NHNH2 | 85.1 nM | 0.99 nM | 42 nM |  | 
H-[Dmt]-[Tic]-OMe | 423 nM | 9.64 nM | 500 nM |  | 
H-αDmt-Tic-OH (peptide) | 1740 nM | 11.2 nM | 475 nM |  | 
N,N(Me)2-Dmt-D-Tic-NH-1-adamantane (peptide) | 50.5 nM | 140 nM | 120 nM |  | 
N,N(Me)2-Dmt-Tic-NH-1-adamantane (peptide) | 1.12 nM | 0.16 nM | 0.12 nM | 2200 fold | 
N,N(Me)2-Dmt-Tic-NHMe (peptide) | 359 nM | 0.54 nM | 0.28 nM |  | 
N,N(Me)2-Dmt-Tic-OH (peptide) | 2440 nM | 0.12 nM | 0.07 nM |  | 
[des-NH2-α-piperidine-1-yl]-Dmt-Tic-OH (peptide) | 2040 nM | 1.18 nM | 0.74 nM |  | 
[des-NH2-α-pyrrole-1-yl]-Dmt-Tic-OH (peptide) | 5590 nM | 16.6 nM | 9.94 nM |  | 
[des-NH2-α-pyrrolidine-1-yl]-Dmt-Tic-OH (peptide) | 814 nM | 1.62 nM | 1.42 nM |  | 
cyclo (DMT-Tic) (peptide) |  | 9.58 nM |  |  | 5.43
